According to patent US20030199423A1:

Assays:
[1] = target: LFA-1 (CD18/CD11a) (human) (UniProt P20701); assay: inhibition of SKW3 cell adhesion to coated soluble ICAM-R, peptide 1-2 mg/ml
[2] = target: LFA-1 (CD18/CD11a) (human) (UniProt P20701); assay: inhibition of neutrophil adhesion to coated ICAM-R/Ig, antibody 15 µg/ml
[3] = target: LFA-1 (CD18/CD11a) (human) (UniProt P20701); assay: inhibition of CD18-dependent adhesion of PMA-treated JY cells to coated shICAM-R, antibody 10 µg/ml; defines total CD18-dependent binding

Sequence of LFA-1 (CD18/CD11a) (human) (P20701 26-1170, chain 1 of 2): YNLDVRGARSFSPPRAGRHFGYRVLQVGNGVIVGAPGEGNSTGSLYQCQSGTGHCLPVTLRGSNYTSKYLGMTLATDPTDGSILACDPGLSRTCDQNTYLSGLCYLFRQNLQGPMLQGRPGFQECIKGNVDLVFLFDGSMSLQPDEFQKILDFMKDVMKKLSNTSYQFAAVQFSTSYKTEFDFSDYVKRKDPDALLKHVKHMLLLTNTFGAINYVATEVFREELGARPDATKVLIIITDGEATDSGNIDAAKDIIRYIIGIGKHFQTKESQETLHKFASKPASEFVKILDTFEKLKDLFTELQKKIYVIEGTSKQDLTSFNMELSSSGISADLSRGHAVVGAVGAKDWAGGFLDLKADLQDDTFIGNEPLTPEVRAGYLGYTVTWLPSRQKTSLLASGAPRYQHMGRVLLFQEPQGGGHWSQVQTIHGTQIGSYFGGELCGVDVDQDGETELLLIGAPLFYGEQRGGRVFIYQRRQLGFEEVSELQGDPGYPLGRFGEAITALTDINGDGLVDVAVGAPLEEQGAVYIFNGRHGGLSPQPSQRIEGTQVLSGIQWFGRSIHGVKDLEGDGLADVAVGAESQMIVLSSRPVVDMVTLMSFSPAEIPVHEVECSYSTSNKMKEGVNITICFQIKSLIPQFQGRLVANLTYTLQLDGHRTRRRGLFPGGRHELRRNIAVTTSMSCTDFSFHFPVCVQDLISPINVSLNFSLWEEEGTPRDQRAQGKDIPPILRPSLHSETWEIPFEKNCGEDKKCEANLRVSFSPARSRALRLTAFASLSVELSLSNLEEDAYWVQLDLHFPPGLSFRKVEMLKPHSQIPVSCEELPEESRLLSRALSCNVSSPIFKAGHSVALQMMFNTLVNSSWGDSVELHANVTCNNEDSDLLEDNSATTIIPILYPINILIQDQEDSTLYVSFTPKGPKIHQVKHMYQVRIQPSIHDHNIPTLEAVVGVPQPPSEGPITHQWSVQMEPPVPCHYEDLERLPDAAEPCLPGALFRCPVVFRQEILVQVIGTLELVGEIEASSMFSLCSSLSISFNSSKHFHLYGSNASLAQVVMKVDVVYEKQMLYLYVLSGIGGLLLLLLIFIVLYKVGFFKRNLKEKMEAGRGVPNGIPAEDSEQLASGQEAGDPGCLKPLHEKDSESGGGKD
Sequence of LFA-1 (CD18/CD11a) (human) (P05107 23-769, chain 2 of 2, further chain): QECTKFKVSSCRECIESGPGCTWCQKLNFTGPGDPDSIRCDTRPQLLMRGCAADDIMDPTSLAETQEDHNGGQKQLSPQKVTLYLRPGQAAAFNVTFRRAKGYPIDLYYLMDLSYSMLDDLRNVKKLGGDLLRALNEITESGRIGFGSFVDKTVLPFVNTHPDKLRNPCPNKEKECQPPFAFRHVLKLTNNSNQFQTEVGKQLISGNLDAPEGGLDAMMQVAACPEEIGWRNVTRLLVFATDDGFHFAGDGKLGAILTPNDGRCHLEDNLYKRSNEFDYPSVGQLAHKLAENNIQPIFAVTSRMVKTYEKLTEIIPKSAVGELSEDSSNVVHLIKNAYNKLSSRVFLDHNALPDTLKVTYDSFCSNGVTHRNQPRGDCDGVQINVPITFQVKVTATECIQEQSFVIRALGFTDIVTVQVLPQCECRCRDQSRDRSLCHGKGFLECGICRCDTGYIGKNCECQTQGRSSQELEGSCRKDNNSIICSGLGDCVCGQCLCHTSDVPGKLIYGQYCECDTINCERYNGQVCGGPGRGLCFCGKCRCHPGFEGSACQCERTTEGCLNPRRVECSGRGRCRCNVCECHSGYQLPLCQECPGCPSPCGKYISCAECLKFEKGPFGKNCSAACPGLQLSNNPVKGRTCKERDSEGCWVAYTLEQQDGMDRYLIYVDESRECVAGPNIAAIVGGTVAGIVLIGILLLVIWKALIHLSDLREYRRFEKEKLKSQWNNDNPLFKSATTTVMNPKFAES

In the case of “ICAM-R domain 1 peptide (NGSQI), residues 72-76”, the % Inhibition [1] is reported as 26%.

anti-CD11a monoclonal antibody TS1/22 gave a percent inhibition of neutrophil binding to ICAM-R [2] of 50%.

For anti-CD18 monoclonal antibody 60.3, the Inhibition (%) [3] was 100%.
